The values that follow come from article PMC10045489 (2023).

B1: Nb20 nanobody (VHH)
VHH: QVQLVESGGGLVQAGGSLRLSCAVSGAGAHRVGWFRRAPGKEREFVAAIGASGGMTNYLDSVKGRFTISRDNAKNTIYLQMNSLKPQDTAVYYCAARDIETAEYIYWGQGTQVTVSS
B2: ab8 nanobody (VHH)
VHH: QVQLVESGGGLVQPGGSLRLSCAASGFTFDDYAMSWVRQAPGKGLEWIGRMYNNGRTSYNPSLKSLVTISRDNSKNTLYLQMNSLRAEDTATYYCARDNLGYRPSENLYGMDVWGQGTQVTVSS
B3: H11-H4 nanobody (VHH)
VHH: QVQLVESGGGLMQAGGSLRLSCAVSGRTFSTAAMGWFRQAPGKEREFVAAIRWSGGSAYYADSVKGRFTISRDKAKNTVYLQMNSLKYEDTAVYYCAQTHYVSYLLSDYATWPYDYWGQGTQVTVSS

For this test, the target named is full-length His-tagged SARS-CoV-2 spike protein (wild-type) (SARS-CoV-2, UniProt P0DTC2). As to the kind of experiment: BLI. In general terms: Biolayer interferometry detects binding as a change in optical thickness at a sensor tip.
As a reminder, the Kd is the concentration at which binding is half-saturated. The low end stands for higher affinity, the high end for lower affinity. B1 had a dissociation constant (Kd) of approximately 0.72 nM.

For the molecule B2, the Kd was approximately 120 nM. The same measure for B3: approximately 61 nM.
